Results taken from patent publication US20180022815A1.

Target: BCMA and CD138 on H929 cells
Experiment: flow cytometry on H929 cells, sheep antihuman Ig-FITC secondary

B1: bi-specific CD138/BCMA-IgG (dual CD138 scFv - 218S linker - BCMA scFv fused with a human IgG Fc) (bispecific antibody, not shown: a dimerising Fc or GST)
chain: DIQMTQSTSSLSASLGDRVTISCSASQGINNYLNWYQQKPDGTVELLIYYTSTLQSGVPSRFSGSGSGTDYSLTISNLEPEDIGTYYCQQYSKLPRTFGGGTKLEIKGSTSGSGKPGSSEGSTKGQVQLQQSGSELMMPGASVKISCKATGYTFSNYWIEWVKQRPGHGLEWIGEILPGTGRTIYNEKFKGKATFTADISSNTVQMQLSSLTSEDSAVYYCARRDYYGNFYYAMDYWGQGTSVTVSSGSTSGSGKPGSSEGSTKDIVLTQSPASLAVSLGDRATINCRASESVSVIGAHLIHWYQQKPGQPPKLLIYLASNLETGVPARFSGSGSGTDFTLTISSLQAEDAAIYYCLQSRIFPRTFGQGTKLEIKGSTSGSGKPGSSEGSTKGQVQLVQSGSELKKPGASVKVSCKASGYTFTDYSIQWVRQAPGQGLEWMGWIQTETREPAYAYDFRGRFVFSLDTSVSTAYLQISSLKAEDTAVYYCALDYSYAMDYWGQGTLVTVSS
- percent of H929 cells stained ("efficiency"): 84.8%
